# Source: patent US20240116985A1 (published 2024)
# Starred links: 1 amine or outer side, 2 acyl side, 3 side chain; linkers in the order of their positions; H or OH if unused. Positions of bridges follow the written chain, without caps; N, C: chain ends. Non-standard residues stand in square brackets, D forms with d. Primed or numbered codes have the meaning given here. (Me2NPrPip)GlnR = (S)-2-amino-5-(4-(3-(dimethylamino)propyl)piperazin-1-yl)-5-oxopentanoic acid, CN(C)CCCN1CCN(C(=O)CC[C@H](N[*:1])C(=O)[*:2])CC1; PyrS2″ = (S)-3-amino-1-((pent-4-en-1-yloxy)carbonyl)pyrrolidine-3-carboxylic acid (stapling residue), C=CCCCOC(=O)N1CC[C@@](N[*:1])(C(=O)[*:2])C1; (RDMAPyr)GlnR = (S)-2-amino-5-((R)-3-(dimethylamino)pyrrolidin-1-yl)-5-oxopentanoic acid, CN(C)[C@@H]1CCN(C(=O)CC[C@H](N[*:1])C(=O)[*:2])C1; (4PyPip)GlnR = (S)-2-amino-5-oxo-5-(4-(pyridin-4-yl)piperazin-1-yl)pentanoic acid, O=C(CC[C@H](N[*:1])C(=O)[*:2])N1CCN(c2ccncc2)CC1; TfeGA = (S)-2-amino-3-((carboxymethyl)(2,2,2-trifluoroethyl)amino)propanoic acid, O=C([C@H](CN(CC(=O)[*:3])CC(F)(F)F)N[*:1])[*:2]; (4Pippip)GlnR″ = (S)-5-([1,4'-bipiperidin]-1'-yl)-2-amino-5-oxopentanoic acid, O=C(CC[C@H](N[*:1])C(=O)[*:2])N1CCC(N2CCCCC2)CC1; PyrS2 = (S)-3-amino-1-((pent-4-en-1-yloxy)carbonyl)pyrrolidine-3-carboxylic acid, C=CCCCOC(=O)N1CC[C@@](N[*:1])(C(=O)[*:2])C1; B5(27) = 2-amino-2-(pent-4-en-1-yl)hept-6-enoic acid (two alkene side-chain arms), C=CCCCC(CCCC=C)(N[*:1])C(=O)[*:2]; B5(19) = 2-amino-2-(pent-4-en-1-yl)hept-6-enoic acid (bis(4-pentenyl)glycine), C=CCCCC(CCCC=C)(N[*:1])C(=O)[*:2]; MePpzAsn = (S)-2-amino-4-(4-methylpiperazin-1-yl)-4-oxobutanoic acid, CN1CCN(C(=O)C[C@H](N[*:1])C(=O)[*:2])CC1; F2PipNva = (S)-2-amino-5-(4,4-difluoropiperidin-1-yl)pentanoic acid, O=C([C@H](CCCN1CCC(F)(F)CC1)N[*:1])[*:2]; MorphAsn = (S)-2-amino-4-morpholino-4-oxobutanoic acid, O=C(C[C@H](N[*:1])C(=O)[*:2])N1CCOCC1; B5(3) = 2,2-bis(4-pentenyl)glycine (stitching residue), C=CCCCC(CCCC=C)(N[*:1])C(=O)[*:2]; MorphAbu = (S)-2-amino-4-morpholinobutanoic acid, O=C([C@H](CCN1CCOCC1)N[*:1])[*:2]; Phe(4-(3-Py)) = N[C@@H](Cc1ccc(-c2cccnc2)cc1)C(=O)O; Nva(5-morpholino) = N[C@@H](CCCN1CCOCC1)C(=O)O; Phe(2-Cl) = N[C@@H](Cc1ccccc1Cl)C(=O)O; Phe(2-OMe) = COc1ccccc1C[C@H](N)C(=O)O; 1Nal = N[C@@H](Cc1cccc2ccccc12)C(=O)O; 2Nal = N[C@@H](Cc1ccc2ccccc2c1)C(=O)O; Bta = N[C@@H](Cc1csc2ccccc12)C(=O)O; αAllylPro = C=CC[C@@]1(C(=O)O)CCCN1; tBuAla = CC(C)(C)C[C@H](N)C(=O)O; 3Thi = N[C@@H](Cc1ccsc1)C(=O)O; Cha = N[C@@H](CC1CCCCC1)C(=O)O; hSer = N[C@@H](CCO)C(=O)O
# T1: B-cat-Halo (beta-catenin HaloTag fusion construct expressed in HEK293 cells) (UniProt P35222 1-781)
# T1 sequence (looked up): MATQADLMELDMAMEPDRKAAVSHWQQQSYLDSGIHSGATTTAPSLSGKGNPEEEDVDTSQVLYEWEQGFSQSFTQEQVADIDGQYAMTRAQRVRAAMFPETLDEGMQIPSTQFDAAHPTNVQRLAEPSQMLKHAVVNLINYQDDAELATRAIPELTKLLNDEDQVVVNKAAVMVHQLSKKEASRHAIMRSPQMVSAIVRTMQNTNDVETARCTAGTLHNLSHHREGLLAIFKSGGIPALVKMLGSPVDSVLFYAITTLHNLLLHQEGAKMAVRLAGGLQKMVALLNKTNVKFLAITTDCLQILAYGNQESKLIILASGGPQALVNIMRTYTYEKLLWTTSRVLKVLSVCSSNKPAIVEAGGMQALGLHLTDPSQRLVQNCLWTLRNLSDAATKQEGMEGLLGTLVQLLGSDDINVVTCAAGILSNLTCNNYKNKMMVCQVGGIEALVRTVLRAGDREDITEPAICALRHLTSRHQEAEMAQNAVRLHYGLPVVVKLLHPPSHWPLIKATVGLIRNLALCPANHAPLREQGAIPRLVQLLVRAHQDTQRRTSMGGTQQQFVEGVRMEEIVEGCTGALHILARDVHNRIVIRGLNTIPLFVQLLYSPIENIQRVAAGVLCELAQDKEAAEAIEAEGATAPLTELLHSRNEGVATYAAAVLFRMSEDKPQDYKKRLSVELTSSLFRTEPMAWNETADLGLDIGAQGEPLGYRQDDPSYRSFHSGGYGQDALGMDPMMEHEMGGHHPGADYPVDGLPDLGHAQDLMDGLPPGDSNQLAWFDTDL
# T2: B-cat-Halo (beta-catenin HaloTag fusion expressed in HEK293 cells) (UniProt P35222 1-781, HaloTag labelled with HaloTag NanoBRET 618 Ligand)
# T2 sequence (looked up): T1 sequence (looked up)
# T3: B-cat-Halo (beta-catenin HaloTag NanoBRET construct expressed in HEK293 cells) (UniProt P35222 1-781)
# T3 sequence (looked up): T1 sequence (looked up)
# Target: T1, B-cat-Halo (beta-catenin HaloTag fusion …)
# Assay: cell-based or functional assay
row,NanoBRET Abs IC50 [µM],Binder
1,> 20,"Ac-[αAllylPro]D[1Nal][B5(3)]DDAAFS[PyrS2″][Phe(2-Cl)][Bta]Q-NH2 (staple 1-4, 4-11) [I-1108]"
2,17.7,"Ac-[αAllylPro]D[Cha][B5(3)]DDAAFS[PyrS2″][Phe(2-OMe)][Bta]S-NH2 (staple 1-4, 4-11) [I-1104]"
3,11.8,"Ac-[αAllylPro]D[Cha][B5(3)]DDAAF[Cha][PyrS2″][Phe(2-Cl)][Bta]Q-NH2 (staple 1-4, 4-11) [I-1107]"
4,> 20,"Ac-[αAllylPro]D[1Nal][B5(3)]DDAAFL[PyrS2″][Phe(2-Cl)][Bta]Q-NH2 (staple 1-4, 4-11) [I-1110]"
5,> 20,"Ac-[αAllylPro]D[2Nal][B5(3)]DDAAFL[PyrS2″][2C1F][Bta]Q-NH2 (staple 1-4, 4-11) [I-1111]"
6,> 20,"Ac-[αAllylPro]D[2Nal][B5(3)]DDAAFS[PyrS2″][Phe(2-Cl)][Bta]Q-NH2 (staple 1-4, 4-11) [I-1109]"
7,> 20,"Ac-[αAllylPro]D[tBuAla][B5(3)]DDAAFS[PyrS2″][Cha][Bta]S-NH2 (staple 1-4, 4-11) [I-1106]"
8,> 20,"Ac-[αAllylPro]D[1Nal][B5(3)]DDAAFT[PyrS2″][Phe(2-Cl)][Bta]S-NH2 (staple 1-4, 4-11) [I-1114]"
9,> 20,"Ac-[αAllylPro]D[tBuAla][B5(3)]DDAA[Cha]S[PyrS2″]F[Bta]S-NH2 (staple 1-4, 4-11) [I-1105]"

# Target: T2, B-cat-Halo (beta-catenin HaloTag fusion …)
# Assay: cell-based or functional assay
row,NanoBRET Abs IC50 [µM],Binder
1,4.7,"Ac-[αAllylPro]D[tBuAla][B5(27)]DDAAFL[PyrS2][3Thi][Bta][dQ]-NH2 (staple 1-4, 4-11) [I-1500]"
2,23.9,"Ac-[αAllylPro]D[tBuAla][B5(27)]DDAAFL[PyrS2][3Thi][Bta]V-NH2 (staple 1-4, 4-11) [I-1495]"
3,30.3,"Ac-[αAllylPro]D[tBuAla][B5(3)]DDAAF[MePpzAsn][PyrS2″][3Thi][Bta]Q-NH2 (staple 1-4, 4-11) [I-1488]"
4,9.4,"Ac-[αAllylPro]D[tBuAla][B5(27)]DDAAFL[PyrS2][3Thi][Bta]F-NH2 (staple 1-4, 4-11) [I-1496]"
5,17.9,"Ac-[αAllylPro]D[tBuAla][B5(3)]DDAAF[F2PipNva][PyrS2″][3Thi][Bta]Q-NH2 (staple 1-4, 4-11) [I-1486]"
6,> 20,"Ac-[αAllylPro]D[tBuAla][B5(3)]DD[MePpzAsn]AFL[PyrS2″][3Thi][Bta]Q-NH2 (staple 1-4, 4-11) [I-1484]"
7,4.9,"Ac-[αAllylPro]D[tBuAla][B5(27)]DDAAFL[PyrS2][3Thi][Bta]S-NH2 (staple 1-4, 4-11) [I-1493]"
8,21.5,"Ac-[αAllylPro]D[tBuAla][B5(3)]DDAAF[MorphAsn][PyrS2″][3Thi][Bta]Q-NH2 (staple 1-4, 4-11) [I-1487]"
9,> 20,"Ac-[αAllylPro]D[tBuAla][B5(27)]DDA[F2PipNva]FL[PyrS2][3Thi][Bta]Q-NH2 (staple 1-4, 4-11) [I-1502]"
10,25.8,"Ac-[αAllylPro]D[tBuAla][B5(3)]DDAAF[Nva(5-morpholino)][PyrS2″][3Thi][Bta]Q-NH2 (staple 1-4, 4-11) [I-1485]"
11,6.4,"Ac-[αAllylPro]D[tBuAla][B5(27)]DDAAFL[PyrS2][3Thi][Bta][hSer]-NH2 (staple 1-4, 4-11) [I-1499]"
12,11.4,"Ac-[αAllylPro]D[tBuAla][B5(27)]DDAAFL[PyrS2][3Thi][Bta]W-NH2 (staple 1-4, 4-11) [I-1497]"
13,7.3,"Ac-[αAllylPro]D[tBuAla][B5(3)]DDAAFL[PyrS2″][3Thi][Bta]N-NH2 (staple 1-4, 4-11) [I-1492]"
14,9.2,"Ac-[αAllylPro]D[tBuAla][B5(3)]DD[Phe(4-(3-Py))]AFL[PyrS2″]F[Bta]Q-NH2 (staple 1-4, 4-11) [I-1489]"
15,> 20,"Ac-[αAllylPro]D[tBuAla][B5(27)]DDA[Nva(5-morpholino)]FL[PyrS2][3Thi][Bta]Q-NH2 (staple 1-4, 4-11) [I-1501]"
16,14.7,"Ac-[αAllylPro]D[tBuAla][B5(27)]DDAAFL[PyrS2][3Thi][Bta]T-NH2 (staple 1-4, 4-11) [I-1494]"
17,> 20,"Ac-[αAllylPro]D[tBuAla][B5(27)]DDA[MorphAbu]FL[PyrS2][3Thi][Bta]Q-NH2 (staple 1-4, 4-11) [I-1504]"

# Target: T3, B-cat-Halo (beta-catenin HaloTag …)
# Assay: cell-based or functional assay
row,NanoBRET Abs IC50 [µM],Binder
1,30,"Ac-[αAllylPro]D[tBuAla][B5(19)]D[TfeGA]AAF[(4PyPip)GlnR][PyrS2″][3Thi][Bta]Q-NH2 (staple 1-4, 4-11) [I-1938]"
2,15.7,"Ac-[αAllylPro]D[tBuAla][B5(19)]D[TfeGA]AAF[(Me2NPrPip)GlnR][PyrS2″][3Thi][Bta]Q-NH2 (staple 1-4, 4-11) [I-1936]"
3,20.7,"Ac-[αAllylPro]D[tBuAla][B5(19)]D[TfeGA]AAF[(RDMAPyr)GlnR][PyrS2″][3Thi][Bta]Q-NH2 (staple 1-4, 4-11) [I-1939]"
4,15.4,"Ac-[αAllylPro]D[tBuAla][B5(19)]D[TfeGA]AAF[(4Pippip)GlnR″][PyrS2″][3Thi][Bta]Q-NH2 (staple 1-4, 4-11) [I-1940]"
